Source: PMC3470543, “Effects of the Missense Mutations in Canine BRCA2 on BRC Repeat 3 Functions and Comparative Analyses between Canine and Human BRC Repeat 3” (PLoS ONE, 2012)
Where a chain is given by its changes, count along the chain named.

B1: Gal4-DBD-fused wild-type canine BRC3 [canine] / VP16 transactivation domain-fused human RAD51 [human] (parent complex)
chain 1: GQNIKDFDTFYLSFQTASRKNIRVSKESLNKARSLLNQKWTEEELNNFSDSLNSELLPGIDIKKTDISNHEVI
chain 2: MAMQMQLEANADTSVEEESFGPQPISRLEQCGINANDVKKLEEAGFHTVEAVAYAPKKELINIKGISEAKADKILAEAAKLVPMGFTTATEFHQRRSEIIQITTGSKELDKLLQGGIETGSITEMFGEFRTGKTQICHTLAVTCQLPIDRGGGEGKAMYIDTEGTFRPERLLAVAERYGLSGSDVLDNVAYARAFNTDHQTQLLYQASAMMVESRYALLIVDSATALYRTDYSGRGELSARQMHLARFLRMLLRLADEFGVAVVITNQVVAQVDGAAMFAADPKKPIGGNIIAHASTTRLYLRKGRGETRICKIYDSPCLPEAEAMFAINADGVGDAKD
B2: Gal4-DBD-fused wild-type canine BRC3 [canine] / VP16 transactivation domain-fused canine RAD51 [canine] (parent complex)
chain 1: B1 chain 1
chain 2: B1 chain 2 with N62S, A76T, A194G

Variants of: B1
Experiment: mammalian two-hybrid assay; HeLa cells; luciferase activity determined 48 h after transfection; n = 3; read off a plot

response [Firefly/Renilla]	Variant
~34	chain 1 GQNIKDFDTFYLSFQTASRKNIRVSRESLNKARSLLNQKWTEEELNNFSDSLNSELLPGIDIKKTDISNHEVI [chain 1 K26R]
~2.2	chain 1 GQNIKDFDTFYLSFQPASRKNIRVSKESLNKARSLLNQKWTEEELNNFSDSLNSELLPGIDIKKTDISNHEVI [chain 1 T16P]

Variants of: B2
Experiment: as above

response [Firefly/Renilla]	Variant
~120	chain 1 GQNIKDFDTFYLSFQTASRKNIRVSRESLNKARSLLNQKWTEEELNNFSDSLNSELLPGIDIKKTDISNHEVI [chain 1 K26R]
~3.5	chain 1 GQNIKDFDTFYLSFQPASRKNIRVSKESLNKARSLLNQKWTEEELNNFSDSLNSELLPGIDIKKTDISNHEVI [chain 1 T16P]
